In patent publication US20140256613A1:

Experiments:
[1] = molecular target: full-length human TLR4 expressed as fusion protein with GAL4 (pTLR4) (human); assay: flow cytometry of pSPA + pTLR4 transfected HEK293 cells stained with isotype control antibody [A)(iii]
[2] = molecular target: full-length human TLR4 expressed as fusion protein with GAL4 (pTLR4) (human); assay: flow cytometry of pSPA-mutant + pTLR4 transfected HEK293 cells stained with isotype control antibody [A)(iii]
[3] = molecular target: full-length human TLR4 expressed as fusion protein with GAL4 (pTLR4) (human); assay: cell-based or functional assay

Substance | % positive cells in region R [1] | % positive cells in region R [2] | LPS-induced NF-κB luciferase reporter activity in co-transfected HEK293 cells [3]
(IC) (antibody) | 1.06% | 1.65% | –
SPA-mutant lacking SPA4 peptide region, expressed as fusion protein with VP16 (pSPA-mutant) (from UniProt Q8IWL2 21-248) | – | – | 44 RLU
